One may read the Kd as the constant that tells how readily two partners part at equilibrium. The low end stands for higher affinity, the high end for lower affinity.

Data on four molecules can be found in patent publication US6623738 (University of California, dated 2003).

T1: mouse neuropilin-2(a0), myc-tagged, expressed in COS-7 cells (mouse, UniProt O35375 21-931)
T1 construct: also called SR2(a)0; m-npn-2
T1 sequence: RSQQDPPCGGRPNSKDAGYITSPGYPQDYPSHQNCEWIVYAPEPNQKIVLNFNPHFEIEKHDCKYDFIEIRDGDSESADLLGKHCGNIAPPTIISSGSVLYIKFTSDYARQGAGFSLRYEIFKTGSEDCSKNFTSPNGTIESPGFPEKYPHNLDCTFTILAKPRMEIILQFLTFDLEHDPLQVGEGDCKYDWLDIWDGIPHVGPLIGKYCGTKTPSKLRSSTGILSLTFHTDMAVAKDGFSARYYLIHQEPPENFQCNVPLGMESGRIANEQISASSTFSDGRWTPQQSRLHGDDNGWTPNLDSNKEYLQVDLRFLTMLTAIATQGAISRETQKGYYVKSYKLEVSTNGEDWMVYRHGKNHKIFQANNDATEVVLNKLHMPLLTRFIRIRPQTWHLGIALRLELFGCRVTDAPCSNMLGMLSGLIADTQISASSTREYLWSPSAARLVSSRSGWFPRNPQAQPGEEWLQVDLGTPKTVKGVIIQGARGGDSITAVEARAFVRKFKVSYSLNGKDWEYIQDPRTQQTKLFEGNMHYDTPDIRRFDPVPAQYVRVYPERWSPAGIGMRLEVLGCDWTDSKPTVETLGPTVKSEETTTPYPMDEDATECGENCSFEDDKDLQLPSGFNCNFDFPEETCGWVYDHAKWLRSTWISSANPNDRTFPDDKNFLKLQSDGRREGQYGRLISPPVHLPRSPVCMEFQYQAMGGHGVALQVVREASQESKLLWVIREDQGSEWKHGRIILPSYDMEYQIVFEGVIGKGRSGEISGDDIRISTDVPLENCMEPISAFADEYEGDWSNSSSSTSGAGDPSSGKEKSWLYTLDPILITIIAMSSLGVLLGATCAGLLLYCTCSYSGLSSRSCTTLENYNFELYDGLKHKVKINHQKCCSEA

T2: mouse neuropilin-2(a5), myc-tagged, expressed in COS-7 cells (mouse, UniProt O35375 21-931)
T2 construct: also called a5 isoform of neuropilin-2; SR2(a)5
T2 sequence: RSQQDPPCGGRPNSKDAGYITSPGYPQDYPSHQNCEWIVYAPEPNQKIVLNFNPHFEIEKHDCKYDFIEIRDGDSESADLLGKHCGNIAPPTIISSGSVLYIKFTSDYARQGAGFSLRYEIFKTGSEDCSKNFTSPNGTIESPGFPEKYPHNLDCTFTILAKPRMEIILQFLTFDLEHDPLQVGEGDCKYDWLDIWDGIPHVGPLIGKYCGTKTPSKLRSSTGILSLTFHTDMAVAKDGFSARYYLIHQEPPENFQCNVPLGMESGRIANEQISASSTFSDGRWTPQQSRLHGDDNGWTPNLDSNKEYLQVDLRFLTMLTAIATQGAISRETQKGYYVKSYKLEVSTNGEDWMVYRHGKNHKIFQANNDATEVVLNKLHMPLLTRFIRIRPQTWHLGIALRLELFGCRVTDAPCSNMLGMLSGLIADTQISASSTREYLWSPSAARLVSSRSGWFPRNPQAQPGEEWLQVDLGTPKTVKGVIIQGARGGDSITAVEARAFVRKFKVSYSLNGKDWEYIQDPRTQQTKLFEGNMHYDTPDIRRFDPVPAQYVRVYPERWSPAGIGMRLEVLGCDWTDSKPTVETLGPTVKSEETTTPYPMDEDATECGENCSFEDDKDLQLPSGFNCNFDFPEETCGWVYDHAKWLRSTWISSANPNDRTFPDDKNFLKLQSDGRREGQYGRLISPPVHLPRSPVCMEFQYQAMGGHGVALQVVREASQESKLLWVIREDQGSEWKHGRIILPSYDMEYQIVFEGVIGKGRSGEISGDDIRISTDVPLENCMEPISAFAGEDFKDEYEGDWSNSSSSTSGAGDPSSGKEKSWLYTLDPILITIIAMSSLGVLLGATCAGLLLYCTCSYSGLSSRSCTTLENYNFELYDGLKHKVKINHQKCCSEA

T3: mouse neuropilin-2(a22), myc-tagged, expressed in COS-7 cells (mouse, UniProt O35375 21-931)
T3 construct: also called SR2(a)22
T3 sequence: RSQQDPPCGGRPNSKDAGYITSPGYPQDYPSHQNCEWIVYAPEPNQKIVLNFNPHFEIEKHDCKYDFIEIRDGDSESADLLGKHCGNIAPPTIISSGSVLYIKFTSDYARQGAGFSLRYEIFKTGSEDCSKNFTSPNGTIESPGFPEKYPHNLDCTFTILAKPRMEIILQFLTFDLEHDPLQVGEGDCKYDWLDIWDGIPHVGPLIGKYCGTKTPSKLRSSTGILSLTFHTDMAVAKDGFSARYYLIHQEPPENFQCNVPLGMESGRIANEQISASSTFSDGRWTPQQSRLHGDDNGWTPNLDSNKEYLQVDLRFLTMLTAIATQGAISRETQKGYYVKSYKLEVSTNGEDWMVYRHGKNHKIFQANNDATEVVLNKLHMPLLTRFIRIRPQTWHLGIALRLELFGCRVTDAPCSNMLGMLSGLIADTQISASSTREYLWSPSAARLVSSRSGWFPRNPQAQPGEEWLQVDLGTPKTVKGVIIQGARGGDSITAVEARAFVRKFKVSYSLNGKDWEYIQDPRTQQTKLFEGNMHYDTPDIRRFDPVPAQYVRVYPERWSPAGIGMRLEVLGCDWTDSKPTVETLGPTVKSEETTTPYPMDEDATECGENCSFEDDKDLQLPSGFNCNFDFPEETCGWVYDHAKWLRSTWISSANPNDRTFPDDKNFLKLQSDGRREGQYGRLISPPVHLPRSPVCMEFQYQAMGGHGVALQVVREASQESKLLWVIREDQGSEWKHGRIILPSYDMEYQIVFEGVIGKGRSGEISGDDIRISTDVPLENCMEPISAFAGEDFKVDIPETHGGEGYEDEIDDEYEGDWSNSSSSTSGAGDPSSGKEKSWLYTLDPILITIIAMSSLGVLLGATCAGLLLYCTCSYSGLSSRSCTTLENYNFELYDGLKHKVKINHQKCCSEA

B1: AP fusion with the ectodomain of Sema VIa (ligand, UniProt O35464 19-649, looked up)
chain: GFPEDSEPISISHGNYTKQYPVFVGHKPGRNTTQRHRLDIQMIMIMNRTLYVAARDHIYTVDIDTSHTEEIYCSKKLTWKSRQADVDTCRMKGKHKDECHNFIKVLLKKNDDTLFVCGTNAFNPSCRNYRVDTLETFGDEFSGMARCPYDAKHANIALFADGKLYSATVTDFLAIDAVIYRSLGDSPTLRTVKHDSKWLKEPYFVQAVDYGDYIYFFFREIAVEYNTMGKVVFPRVAQVCKNDMGGSQRVLEKQWTSFLKARLNCSVPGDSHFYFNILQAVTDVIRINGRDVVLATFSTPYNSIPGSAVCAYDMLDIANVFTGRFKEQKSPDSTWTPVPDERVPKPRPGCCAGSSSLEKYATSNEFPDDTLNFIKTHPLMDEAVPSIINRPWFLRTMVRYRLTKIAVDNAAGPYQNHTVVFLGSEKGIILKFLARIGSSGFLNGSLFLEEMNVYNPEKCSYDGVEDKRIMGMQLDRASGSLYVAFSTCVIKVPLGRCERHGKCKKTCIASRDPYCGWVRESGSCAHLSPLSRLTFEQDIERGNTDGLGDCHNSFVALNGHASSLYPSTTTSDSASRDGYESRGGMLDWNDLLEAPGSTDPLGAVSSHNHQDKKGVIRESYLKSNDQLVPVT
notes: extracellular domain; also called Sema VIa ectodomain; not shown: alkaline phosphatase (AP) reporter
B2: rat semaphorin receptor 1 (rSR1), full length, expressed on cells (receptor)
chain: FRSDKCGGTIKIENPGYLTSPGYPHSYHPSEKCEWLIQAPEPYQRIMINFNPHFDLEDRDCKYDYVEVIDGENEGGRLWGKFCGKIAPSPVVSSGPFLFIKFVSDYETHGAGFSIRYEIFKRGPECSQNYTAPTGVIKSPGFPEKYPNSLECTYIIFAPKMSEIILEFESFDLEQDSNPPGGMFCRYDRLEIWDGFPEVGPHIGRYCGQKTPGRIRSSSGILSMVFYTDSAIAKEGFSANYSVLQSSISEDFKCMEALGMESGEIHSDQITASSQYGTNWSVERSRLNYPENGWTPGEDSYREWIQVDLGLLRFVTAVGTQGAISKETKKKYYVKTYRVDISSNGEDWITLKEGNKAIIFQGNTNPTDVVFGVFPKPLITRFVRIKPASWETGISMRFEVYGCKITDYPCSGMLGMVSGLISDSQITASNQGDRNWMPENIRLVTSRTGWALPPSPHPYINEWLQVDLGDEKIVRGVIIQGGKHRENKVFMRKFKIAYSNNGSDWKMIMDDSKRKAKSFEGNNNYDTPELRAFTPLSTRFIRIYPERATHSGLGLRMELLGCEVEVPTAGPTTPNGNPVDECDDDQANCHSGTGDDFQLTGGTTVLATEKPTIIDSTIQSEFPTYGFNCEFGWGSHKTFCHWEHDSHAQLRWRVLTSKTGPIQDHTGDGNFIYSQADENQKGKVARLVSPVVYSQSSAHCMTFWYHMSGSHVGTLRVKLHYQKPEEYDQLVWMVVGHQGDHWKEGRVLLHKSLKLYQVIFEGEIGKGNLGGIAVDDISINNHIPQEDCAKPTDLDKKNTEIKIDETGSTPGYEEGKGDKNISRKPGNVLKTLDPILITIIAMSALGVLLGAVCGVVLYCACWHNGMSERNLSALENYNFELVDGVKLKKDKLNPHSNYSEA
notes: also called rat SR1; p28
B3: neuropilin-1 transiently expressed in COS-7 cells (receptor)
chain: B2 chain with M183V, H895Q
notes: also called npn-1; SR1
B4: AP fusion protein comprising only the C domain of SemaIII (AP-C) (ligand)
chain: IIPVEEENPDFWNREAAEALGAAKKLQPAQTAAKNLIIFLGDGMGVSTVTAARILKGQKKDKLGPEIPLAMDRFPYVALSKTYNVDKHVPDSGATATAYLCGVKGNFQTIGLSAAARFNQCNTTRGNEVISVMNRAKKAGKSVGVVTTTRVQHASPAGTYAHTVNRNWYSDADVPASARQEGCQDIATQLISNMDIDVILGGGRKYMFRMGTPDPEYPDDYSQGGTRLDGKNLVQEWLAKRQGARYVWNRTELMQASLDPSVTHLMGLFEPGDMKYEIHRDSTLDPSLMEMTEAALRLLSRNPRGFFLFVEGGRIDHGHHESRAYRALTETIMFDDAIERAGQLTSEEDTLSLVTADHSHVFSFGGYPLRGSSIFGLAPGKARDRKAYTVLLYGNGPGYVLKDGARPDVTESESGSPEYRQQSAVPLDEETHAGEDVAVFARGPQAHLVHGVQEQTFIAHVMAFAACLEPYTACDLAPPAGTTDAAHPGGFIQTLLKVTLEVIDTEHLEELLHKDDDGDGSKTKEMSNSMTPSQKVWYRDFMQLINHPNLNTMDEFCEQVWKRDRKQRRQRPGHTPGNSNKWKHLQENKK

Test [1] has as its target T1, mouse neuropilin-2(a0), myc-tagged, …. In words: AP fusion binding to transfected COS cells.
Test [2] addresses T2, mouse neuropilin-2(a5), myc-tagged, …. In words: AP fusion binding to transfected COS cells.
Test [3] concerns the target T3, mouse neuropilin-2(a22), myc-tagged, …. Description: AP fusion binding to transfected COS cells.
The target of test [4] is T4, SemaIII-AP fusion protein (full-length Sema III fused at its carboxy terminus to alkaline phosphatase). In words: equilibrium binding of AP fusion to 293-EBNA cells stably expressing rat SR1, Hill fit.
Test [5] addresses AP fusion protein comprising just the semaphorin domain of SemaIII (AP-S). Described as above.
For test [6], the target named is T4, SemaIII-AP fusion protein (full-length …). In words: equilibrium binding of AP fusion to neuropilin-1-expressing cells, Hill fit.
Test [7] has as its target B2. Description: equilibrium binding of AP fusion to 293-EBNA cells stably expressing rat SR1, Hill fit.

Numbering of substitutions follows the chain as printed. Where “and” joins values, the source holds several entries; their conditions need not be identical. Identical values can stand only once.

For the molecule B1, the binding result in test [1], in test [2] and in test [3] was “no binding” in each case.

Take B2: the Kd was 0.0553 µg/mL and 0.325 nM in test [4]; 0.219 µg/mL and 1.45 nM in test [5].

On to B3, for which binding in test [6] was characterised by a dissociation constant (Kd) of 0.325 nM.

As for B4, in test [7], the Kd was 0.84 nM and 0.0672 µg/mL.
